Values quoted from earlier work, collected in publication PMC10453832.

Biological target: F-actin (Oryctolagus cuniculus) (UniProt P68135)

## β-III-spectrin ABD (from UniProt O15020)
  Kd: 75 nM
